{"source": "FireProtDB (doi:10.1021/bi972394l)", "proteins": {"B1": {"name": "Superoxide dismutase [Mn], mitochondrial wild type, P04179 (protein)", "chain": "MLSRAVCGTSRQLAPVLGYLGSRQKHSLPDLPYDYGALEPHINAQIMQLHHSKHHAAYVNNLNVTEEKYQEALAKGDVTAQIALQPALKFNGGGHINHSIFWTNLSPNGGGEPKGELLEAIKRDFGSFDKFKEKLTAASVGVQGSGWGWLGFNKERGHLQIAACPNQDPLQGTTGLIPLLGIDVWEHAYYLQYKNVRPDYLKAIWNVINWENVTERYMACKK"}}, "conditions": "Homo sapiens; pH 7.8; Thermal; DSC; potassium phosphate 2 mM; transition: 2; reversible: Yes; whole UniProt chain shown", "note": "Values joined by “and” are separate entries in the source; they are usually repeats but may differ in a detail not shown here. Equal values may be shown once.", "data": [{"protein": "B1", "values": [{"measurement": "unfolding enthalpy (calorimetric)", "value": "142 kcal/mol and 90.6 kcal/mol"}]}]}
